Results published in the nanobody polyreactivity screen of Harvey et al. (2022).

Assay: yeast display, Sf9 membrane polyspecificity reagent, FACS + sequencing; frameworks hold sequencing errors
Summary of the method: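 A nanobody's polyreactivity label depends on the gate it was sorted from. Yeast display cells were stained with 10% biotinylated, detergent-solubilized Sf9 membrane reagent for 1 hour at 4 °C, enriched on streptavidin microbeads and sorted by FACS. The low and high (top ~1%) gates were set on anti-HA fluorescence for expression and streptavidin fluorescence for reagent binding.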

| Sequence | polyreactivity (PSR sort gate) |
| --- | --- |
| QVQLVESGGGLVQAGGSLRLSCAASGFTFLYNAMGWSRQAPGKERELVASINSGGSTNYADSVKGRFTISRDNAKNTVYLQMNSLKPEDTAVYYFNAKRHVRKGDYWGQGTQVTVSS | low polyreactivity |
| QVQLVESGGGLVQAGGSLRLSCAASGLIFYYYAMGWYRQAPGKEREFVAAISRRGGSTYYADSVKGRFTISRDNAKNTVYLHMNSLKPEDTAVYYCAAKSGSFVHGGYQTPVYGSDYWGQGTQVTVSS | high polyreactivity |
| QVQLVESGGGLVQAGGSLRLSCAASGIIFSKYAMGWYRQAPGKERELVARISWRGGDTYYADSVKGRFTISRDNAKNTVYLQMNSLKPEDTAVYYCNARIWGRYFSYTRFDYWGQGTQVTVSS | high polyreactivity |
| QVQLVESGGGLVQAGGSLRLSCAASGRTFGWNVMGWYRQAPGKERELVAAISGSGASTYYADSVKGRFTISRDNAKNTVYLQMNSLKPEDTAVYYCAAVQGYRFYEYYYWGQGTKVTVSS | low polyreactivity |
| QVQLVESGGGLVQAGGSLRLSCAASGRIYYAYTMGWYIQAPGKERELVAAISGSGSTYYADSVKGRFSISRDNAKNTVYLQMNSLKPEDTAVYYCAADVTGGRKYDYWGQGTQVTVSS | low polyreactivity |
| QVQLVESGGGLVQAGGSHRLSCAASGSIFRSYAMGWYRQAPGKERELVASISRRGGSTYYADSVKGRFTISRDNAKNTVYLQMNSLIPEDTAVYYCAAVRYNSRVSTTPSEMYYWGQGTQVTVSS | low polyreactivity |
| QVQHVESGGGLVQAGGSLRLSCPASGSTLYGYAMGWYRQEPGKESELVAAINTGASTNYADSVKGRFTISRDNAKNTVYLQMNSLKPEDTAVYYCAASYSLTFWDKDDYWGQGTQVTVSS | low polyreactivity |
| QVQLVESGGGLVQAGGSLRLSCAASGRTLYVNAMGSYRQAPGKERELVARISSGSSTNYADSVKGRFTISRDNAKNTVYLQMNSLKPEHTAVYYCAARYTARRQSYGYWGQGTQVTVSS | high polyreactivity |
| QVQLVESGGGLVQAGGSLRLSCAPSGFTFLGYDMGWYRQAPGKERELVAAIDYSGGSTYYADSVKGRFTISRDNAKNTVFLQMNSLKPEDTAVYDCAAEYQSGPYTWYEYWGQGTQVTVSS | high polyreactivity |
| QVQLVESGGGLVQAGGSLRLSCAASGSTFVSNTMGWYRQAPGKERELVAAITWGGGGTYYADSVKGRFTISRDNAKNTVYLQMNSLKPEDTAVYYCAAKVQGGYYDYDYWGQGTQVTVSS | low polyreactivity |
| QVQLVESGGGLVQAGGSLRLSCAASGSTSSVNAMGWYRQAPGKEREFVATISFGGGRRYYADSVKGRFTISRDNAKNTVYLQMNSLKPEDTAVYYCAAVGSRWFSQTWRDYWGQGTQVTVSS | high polyreactivity |
| QVQLVESGGGLDQAGGSHRLSCAASGRIFYIYTMGWYRQPPGKEREFVAGINWNGGSTYYADSVKGRFTISRDNAKNTVYLQMNSLKPEVTAVYYCNADQYWDRYYYWGQGTQVTVSS | low polyreactivity |
| QVQLVESGGGLVQAGGSLRLSCAASGSTFGYYAMGWYRQAPGKERELVAVIRRGGSTNYADSVKGRFTISRDNAKNTVYLQMNSLKPEDTAVYYCNKYRYAGITAEFYYWGQGTQVTVSS | high polyreactivity |
| QVQLEESGGGLLKEGGSLRLSCAASGFTFDGYAMGWYRQAPGKERELVAVITSGGSTKYADSVKGRFTISRDNAKNTVYLQMNSLKPEVTAVYNCNVVGGRYLYSAYDYWGHGTQVTVSS | low polyreactivity |
| QVQLVESGGGLVQAGGSLRLSCAASGSTFYVNTMGWYRQAPGKERELVATITASDGSTYADSVKGRFTISRDNAKNTVYLQMNSLKPDDTAVYYCNADTRTQGPYSAPYYREMNYWGQGTQVTVSS | low polyreactivity |
| QVQLVESGAGLVQAGGSLRLCCAASGRTYRLYAMGWYRQAPGKERELVAAITRGGRTNYADSVKGRFTISRDNAINTVYLQMYSLKPEDIAVYYCAARYVERHTDYYYWGQGTQVTVSS | low polyreactivity |
| QVQLVESGGGLVQAGGSLRLSCAASGSTFRYNAMGWYRQAPGKERELVAGISYRGGTTYYADSVKGRFTISRDNAKNTVYLQMNSLKPEDTAVYYCAAGASSPGGWFYYWGQGTQVTVSS | high polyreactivity |
| QVQLVESGGGLVQAGGSLRLSCAASGRTFPRNAMGWSRQAPGKERELVAAISSTGDSTYYADSVKGRFTISRDNAKNTVYLQMNSLKPEDTAVYYCHYPYDYWGKGTQVTVSS | low polyreactivity |
| QVQLVESGGGLVQAGGSLRLSCAASGSIFSGYTMGWYRQAPGKERELVAGISYRGGSTYYADSVKGRFTISRDNAKNTVYLQMNSLKPEDTAVYYCAALYYRRGSLNYEYWGQGTQVTVSS | high polyreactivity |
| QVQLVESGGGLVQAGGSLRLSCAASGFIFFTYAMGWYRQAPGKVRELVAAITSRGGRTYYADSVKGRFTISRDNAKNTVYLQMNILKPEDTAVYYCAVDPVRRYRYDYWGQGTQVTVSS | low polyreactivity |
| QVQLVESGGGLVQAGGNLRLSCAASGFIFTRYAMGWYRQAPGKERELVAAISTSGDRTYYADSVKGRFTISRDNAKNTVYLQMNSLKPEDTAVYYCATSKSYSSKLYDYWGQGTQVTVSS | high polyreactivity |
| QVQLVESGGGLVQAGGSLRLSCAASGRIFQPNVMGWYRQAPGKERELVAAIRSGSSTYYADSVKGRFTISRDNAKNTVYLQMNSLKPEDTAVYYCATRRAGRGYDYWGQGTQVTVSS | high polyreactivity |

| Sequence | polyreactivity (PSR sort gate) |
| --- | --- |
| QVQLVESGGGLVQAGGSLRLSCAASGRIFAGYTMGWYRQAPGKERELVAAISGSGGRTYYADSVKGRFTISRDIAKNTVYLQMNSLKPEDTAVYYCAAYRSRTYGYWGQGTQVTVSS | high polyreactivity |
| QVQLVESGGGLVQAGGSLRLSCAASGRTFIYYAMGWYRQAPGKERELVAGITYSVGSTYYADSVKGRFTISRDNEKNTVYLQMNSLKPEDTAVYYCAYYYWGQGTQVTVSS | low polyreactivity |
| QVQLVESGGGLVQAGGSLRLSCAASGSTFPYYAMGWYRQAPGKERELVAAISGSGGTTYYADSVKGRFTISRDNAKNTVYLQMNILKPEDTAVYYCAAEASHYYYNAYPSYGGSDYWGQGTQVTVSS | low polyreactivity |
| QVQLVESGGGLVQAGGSLRLSCAASGNILAWYAMGWYRQAPGKERELVADISSRGGSTYYADSVKRRFTISRDNAKYTVYLQMKSLKPEDTAVYYCAAVWYWNQDYEYWGQGTQVTVSS | low polyreactivity |
| QVQLVESGGGLVQAGGSLRLSCASSGYTIPLYAMVWYRQAPGKERELVADINIGGASTYYADSVKGRFTISRDNAKYTVYLQMNSLKPEDTAVYYCAKEYYDGYFTTFEYDYWGQGTQVTVSS | low polyreactivity |
| QVQLVESGGGLVQAGGSLRLSCAASGFIFRYYAMGWYRQAPGKERELVAAISWSGGSTYYADSVKGRFTISRDNAMNTVYLQMNSLKPEDTAVYYCAADRYAILFYAEDYWGQGTQVTVSS | low polyreactivity |
| QVQLVESGGGLVQAGGSLRLSCAASGSTFSLNDRGWYRQAPGKERELVAVISSSTGITYYADSVKGRFTISRDNAKYTVYLQMNSLKPEDTAVYYCNADKWEVYYTRMYYWGQGTQVTVSS | low polyreactivity |
| QVQLVESGGGLVQAGGSLRLSCAASGRTFYTVYAMGWYRQAPGKERELVAAITKDGTTTYYADSVKGRFTISRDNAKNTVYLQMNSLKPEDTAVYYCNADVCQPWGGGEYNYWGQGTQVTVSS | high polyreactivity |
| QVQLVESGGGLVQAGGSLRLSCAASGFTFSKYVKGLYRQAPGKERELVAAISKRGGSTYYADSVKGRFTISRDYAKNTVYLQMNSLKPEDTAVYYCAARYYLEQILEKDYWVQGTQVTVSS | high polyreactivity |
| QVQLVESGGGLVQAGGSLRLCCAAAGSTFVYYAMGSYRAAPGNERELVAAIRNGDGTNYADSVKGRFTISRDNAKNTVYLQMNSLKPEDTAVYYCAAPQGEYFYVYEFDYWGQGTQVTVSS | low polyreactivity |
| QVQLVESGGGLVQAGGSLRLSCAASGSIFLSYAMGWDRPAPGKVRELVADISRSGGSTYYADSVKGRFTISRDNAKNTVYLQMNSLKPEDTAVYYCAVYIAVYEGDYWGQGTQVTVSS | low polyreactivity |
| QVQLVESGGGLVQAGGSLRLSCAASGSIFLGYAMGWYRQAPGKERELVAAITSGGSTNYADSVKGRFTISRDNAKNTVYLQMNSLKPEDTAVYYCAAKGEWSLVYTDYDYWGQGTQVTVSS | low polyreactivity |
| QVQLVESGGGLVQAGGSLRLSCAASGRTYGYAMGSYRPAPGKERELVARITWRGGSTSYADSVKGRFTISRDNAKNTVYLQMNILKPEDTAVYYCAAGFYFPVYTYVRIRYYYWGQGTQVTVSS | high polyreactivity |
| QVQLVESGGGLVQAGGSLRLSCAASGLTFIEYAMGWYRQAPGKERELVAAISSGGRTYYADSVKGRFTISRDNPKNTVYLQMNSLKPEDTAVYYCNDRGYRRWYNYWGQGTQVTVSS | high polyreactivity |
| QVQHVESGGGLVQAGGSLRLSCAASGRIIWQNAMGWDRQAPGKERELVAAISSRGGTTYYADSVKGRFTISRDNAKNTVYLQINSLKPEDTAVYYCAKEVWRHYLNLYDYWGQGTQVTVSS | low polyreactivity |
| QLQHVESGGCLVQAGASLRLSCAASRLIFFYYAMGWSRQAPGKERELVAAIRTNYADSVKGRITSSRDNAKNTVYLQMNSQKPEDTAVYYCAAESSQSPTSAFDYWGQGTQVTVSA | low polyreactivity |
| QVQLVESGGGLVQAGGSLRLSCAASGRTFGWNAMGWSRQAPGKERELVAAISRTGNTYYADSVKGRFTISRDNAKNTVYLQMNSLKPEDTAVYYCAKGRYYTPTYFRGVDLYDYWGQGTQVTVSS | low polyreactivity |
| QVQLVESGGGLVQAGGSLSLTCDAYGRTIYKYGMGWYREAPGKERDLVARINSNGGSTYYADSVKGRFTISRDNAKNTVYLELISLKPEDTAVYYCARSYVRSYGYYYWGQGTQVTVSS | low polyreactivity |
| QVQLVESGGGLVQAGGSLRLSCASSGSIFRRNVMGWYRQAPGKERELVASITGRGGSTYYADSVKGRFTISRDNAKNTVYLQMNSLKPEDTAVYYSNADSLRTYDWYTRTVGYGYWVQGTQVTVSS | high polyreactivity |
| QVQLVESGGGLVQAGGSLRLSCAASGRIFYTYAMGWYRQAPGKERELVAAITTSGGRTYYADSVKGRFTISRDNAKNTVYLQMNSLKPEDTAVYYCNKLSSDSYNYWGQGTQVTVSS | high polyreactivity |
| QVQLVESGGGLVQAGGSLRLSCAASGIIFQNYDMGWYRQAPGKERELVAAITSGVSTYYADSVKGRFTIARYNAKNTVYLQMNSLKPEDTAVYYCAVVGGFRWIRMEYWGQGTQVTVSS | low polyreactivity |
